According to patent publication US20130252901A1 (KIMONELLA VENTURES, published 2013):

T1: Ac-DAEFRHDSGYEVHHQKGGGGC-NH2, immobilized peptide fragment corresponding to the 1-16 region of the amyloid-β … (N-terminal acetyl (Ac); C-terminal amide (NH2); C-terminal cysteine bound to the CM5 chip through a thiol bond)
T1 construct: Synthetic 21-mer; Aβ 1-16 plus GGGG linker and Cys for immobilisation; also called ligand; target ligand
T1 peptide: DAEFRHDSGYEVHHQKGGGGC

B1: Ac-HAEE-NH2 (peptide)
peptide: Ac-HAEE-NH2
notes: also called ID; NO; 19
B2: Ac-RADD-NH2 (peptide)
peptide: Ac-RADD-NH2
notes: also called ID; NO
B3: Ac-HAEESE-NH2 (peptide)
peptide: Ac-HAEESE-NH2
notes: also called ID; NO; 41
B4: Ac-HAEEAD-NH2 (peptide)
peptide: Ac-HAEEAD-NH2
notes: also called ID; NO; 40
B5: Ac-HAEEQE-NH2 (peptide)
peptide: Ac-HAEEQE-NH2
notes: also called ID; NO; 43
B6: Ac-HAEEGE-NH2 (peptide)
peptide: Ac-HAEEGE-NH2
notes: also called ID; NO; 42
B7: Ac-HAEESD-NH2 (peptide)
peptide: Ac-HAEESD-NH2
notes: also called ID; NO; 39
B8: Ac-EERNFSHAEE-NH2 (peptide)
peptide: Ac-EERNFSHAEE-NH2
notes: also called ID; NO; 56
B9: Ac-HSLAHAEESD-NH2 (peptide)
peptide: Ac-HSLAHAEESD-NH2
notes: also called ID; NO; 49
B10: Ac-DERQISHAEE-NH2 (peptide)
peptide: Ac-DERQISHAEE-NH2
notes: also called ID; NO; 58
B11: Ac-DDHSLAHAEE-NH2 (peptide)
peptide: Ac-DDHSLAHAEE-NH2
notes: also called ID; NO; 54
B12: Ac-AADD-NH2 (peptide)
peptide: Ac-AADD-NH2
notes: also called ID; NO; 32
B13: Ac-RADA-NH2 (peptide)
peptide: Ac-RADA-NH2
notes: also called ID; NO; 36
B14: Ac-RAAE-NH2 (peptide)
peptide: Ac-RAAE-NH2
notes: also called ID; NO; 37
B15: Ac-HAAD-NH2 (peptide)
peptide: Ac-HAAD-NH2
notes: also called ID; NO; 33
B16: Ac-HADA-NH2 (peptide)
peptide: Ac-HADA-NH2
notes: also called ID; NO; 34
B17: Ac-KAAE-NH2 (peptide)
peptide: Ac-KAAE-NH2
notes: also called ID; NO; 38
B18: Ac-HAEA-NH2 (peptide)
peptide: Ac-HAEA-NH2
notes: also called ID; NO; 30
B19: Ac-AAEE-NH2 (peptide)
peptide: Ac-AAEE-NH2
notes: also called ID; NO; 29
B20: Ac-AADE-NH2 (peptide)
peptide: Ac-AADE-NH2
notes: also called ID; NO; 35
B21: Ac-HAAE-NH2 (peptide)
peptide: Ac-HAAE-NH2
notes: also called ID; NO; 31
B22: Ac-DEKQLGHAEE-NH2 (peptide)
peptide: Ac-DEKQLGHAEE-NH2
notes: also called ID; NO; 57
B23: Ac-LAHAEE-NH2 (peptide)
peptide: Ac-LAHAEE-NH2
notes: also called ID; NO; 44
B24: Ac-LGHAEE-NH2 (peptide)
peptide: Ac-LGHAEE-NH2
notes: also called ID; NO; 47
B25: Ac-IAHAEE-NH2 (peptide)
peptide: Ac-IAHAEE-NH2
notes: also called ID; NO; 45
B26: Ac-ISHAEE-NH2 (peptide)
peptide: Ac-ISHAEE-NH2
notes: also called ID; NO; 48
B27: Ac-FSHAEE-NH2 (peptide)
peptide: Ac-FSHAEE-NH2
notes: also called ID; NO; 46
B28: Ac-KQLGHAEEGE-NH2 (peptide)
peptide: Ac-KQLGHAEEGE-NH2
notes: also called ID; NO; 52
B29: Ac-RQISHAEEQE-NH2 (peptide)
peptide: Ac-RQISHAEEQE-NH2
notes: also called ID; NO; 53
B30: Ac-KNIAHAEEAD-NH2 (peptide)
peptide: Ac-KNIAHAEEAD-NH2
notes: also called ID; NO; 50
B31: Ac-EEKNIAHAEE-NH2 (peptide)
peptide: Ac-EEKNIAHAEE-NH2
notes: also called ID; NO; 55
B32: Ac-RNFSHAEESE-NH2 (peptide)
peptide: Ac-RNFSHAEESE-NH2
notes: also called ID; NO; 51
B33: Ac-KADE-NH2 (peptide)
peptide: Ac-KADE-NH2
notes: also called ID; NO; 15
B34: Ac-KAED-NH2 (peptide)
peptide: Ac-KAED-NH2
notes: also called ID; NO
B35: Ac-RAEE-NH2 (peptide)
peptide: Ac-RAEE-NH2
notes: also called ID; NO; 23
B36: Ac-HADD-NH2 (peptide)
peptide: Ac-HADD-NH2
notes: also called ID; NO
B37: Ac-DDAK-NH2 (peptide)
peptide: Ac-DDAK-NH2
notes: also called ID; NO
B38: Ac-DEAR-NH2 (peptide)
peptide: Ac-DEAR-NH2
notes: also called ID; NO; 12

Biological target: complete β peptide 1-40, marked by a fluorescent marker (UniProt P05067 672-711, fluorescent marker, kind and position not stated)
Sequence (P05067 672-711 limits assumed): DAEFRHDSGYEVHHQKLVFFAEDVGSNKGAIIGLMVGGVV
Assay: cell-based or functional assay

| inhibition of the aggregation of the Aβ peptide (fluorescence of marked Aβ 1-40 bound to the wells, SYNTHALOID SCREENING PLATE kit), IC50 | Binder |
| --- | --- |
| 20 µM | B1 |
| 20 µM | B2 |

Biological target: T1, Ac-DAEFRHDSGYEVHHQKGGGGC-NH2, …
Assay: SPR, BIACORE 3000, procedure of Example 1

| Binder | binding result |
| --- | --- |
| B3 | no binding (tested: Kd from 10^-3 to 10^-4 M) |
| B4 | no binding (tested: Kd from 10^-3 to 10^-4 M) |
| B5 | no binding (tested: Kd from 10^-3 to 10^-4 M) |
| B6 | no binding (tested: Kd from 10^-3 to 10^-4 M) |
| B7 | no binding (tested: Kd from 10^-3 to 10^-4 M) |
| B8 | no binding (tested: Kd from 10^-3 to 10^-4 M) |
| B9 | no binding (tested: Kd from 10^-3 to 10^-4 M) |
| B10 | no binding (tested: Kd from 10^-3 to 10^-4 M) |
| B11 | no binding (tested: Kd from 10^-3 to 10^-4 M) |
| B12 | no binding (tested: Kd from 10^-3 to 10^-4 M) |
| B13 | no binding (tested: Kd from 10^-3 to 10^-4 M) |
| B14 | no binding (tested: Kd from 10^-3 to 10^-4 M) |
| B15 | no binding (tested: Kd from 10^-3 to 10^-4 M) |
| B16 | no binding (tested: Kd from 10^-3 to 10^-4 M) |
| B17 | no binding (tested: Kd from 10^-3 to 10^-4 M) |
| B18 | no binding (tested: Kd from 10^-3 to 10^-4 M) |
| B19 | no binding (tested: Kd from 10^-3 to 10^-4 M) |
| B20 | no binding (tested: Kd from 10^-3 to 10^-4 M) |
| B21 | no binding (tested: Kd from 10^-3 to 10^-4 M) |
| B22 | no binding (tested: Kd from 10^-3 to 10^-4 M) |
| B23 | no binding (tested: Kd from 10^-3 to 10^-4 M) |
| B24 | no binding (tested: Kd from 10^-3 to 10^-4 M) |
| B25 | no binding (tested: Kd from 10^-3 to 10^-4 M) |
| B26 | no binding (tested: Kd from 10^-3 to 10^-4 M) |
| B27 | no binding (tested: Kd from 10^-3 to 10^-4 M) |
| B28 | no binding (tested: Kd from 10^-3 to 10^-4 M) |
| B29 | no binding (tested: Kd from 10^-3 to 10^-4 M) |
| B30 | no binding (tested: Kd from 10^-3 to 10^-4 M) |
| B31 | no binding (tested: Kd from 10^-3 to 10^-4 M) |
| B32 | no binding (tested: Kd from 10^-3 to 10^-4 M) |

Biological target: T1, Ac-DAEFRHDSGYEVHHQKGGGGC-NH2, …
Assay: SPR, BIACORE T100, ligand immobilised on CM5 chip, peptide as analyte 50-2,000 µM, no zinc, kinetic fit

| Kd | koff | Binder |
| --- | --- | --- |
| 90 µM | 3.5e-05 s⁻¹ | B1 |
| 4500 µM | 0.0096 s⁻¹ | B33 |
| 3300 µM | 0.019 s⁻¹ | B34 |
| 7700 µM | 0.0112 s⁻¹ | B35 |
| 3250 µM | 0.0104 s⁻¹ | B36 |
| 13 µM | 0.00024 s⁻¹ | B2 |
| 1370 µM | 0.0062 s⁻¹ | B37 |
| 1980 µM | 0.00709 s⁻¹ | B38 |

Biological target: T1, Ac-DAEFRHDSGYEVHHQKGGGGC-NH2, …
Assay: SPR, BIACORE 3000, ligand immobilised on CM5 chip by thiol bond, peptide as analyte 0-25 µM, response at equilibrium; Example 1, BIACORE 3000, response at equilibrium
Procedure: The SPR spectroscopy experiments were conducted with the BIACORE 3000 apparatus. The reagents for immobilizing the amyloid-β peptide fragment (EDC, NHS, PDEA and cysteine) were bought from GE Healthcare (USA). The buffer used for immobilizing the peptide ligand by formation of thiol bonds was 10 mM sodium acetate at pH 4.5. The regeneration buffer was an HBS buffer containing a medium with 10 mM HEPES and 3 mM EDTA, 0.005% of surfactant P20 and 150 mM NaCl at pH 7.4. […] was a HBS buffer at pH 7.4 and a HEPES buffer at pH 6.8, 50 mM, with 100 μM of Zn(II) ions for the reactive tetrapeptide Ac-HAEE-NH₂. All the buffers were filtered before use.
The peptide fragment of the ligand was: Ac-[…]-NH₂, corresponding to the sequence SEQ. ID. NO.26. This peptide with 21 amino acids contains the 16 amino acids of the N-terminal end of the binding domain of the amyloid-β, i.e. […] (SEQ. ID. NO.25), followed by 4 glycine amino acids and a cysteine C-Terminal end. […]
The reagent Ac-HAEE-NH₂ was prepared by dilution with 7 concentrations, i.e. 0, 2, 5, 10, 15, 20 and 25 μM, and injected in a multichannel mode (20 μL QUICKINJECT, 5 μL/min). […] Next, the dissociation constant Kd was calculated in a known way from curves established for the response at equilibrium (Req) versus the concentration (M) in the BIA evaluation 4.1 program.

| Kd | Binder |
| --- | --- |
| 0.022 µM | B1 |
